# In article PMC11417369, “DNA sequence and chromatin differentiate sequence-specific transcription factor binding in the human malaria parasite Plasmodium falciparum”:
# T1: AP2-LT D1 (Plasmodium falciparum, UniProt Q8IAM1 2520-2577)
# T1 sequence: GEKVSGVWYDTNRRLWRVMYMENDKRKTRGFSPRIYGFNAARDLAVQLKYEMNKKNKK
# B1: CACACA_negctrl_site801 (dsDNA)
# DNA 1: GATTTATATATATAAAATAATTGAATATTTTCTTTT
# DNA 2: AAAAGAAAATATTCAATTATTTTATATATATAAATC
# B2: CACACA_negctrl_site213 (dsDNA)
# DNA 1: ATAAATATATGGTTTCATTATATTAAATTCAATTTA
# DNA 2: TAAATTGAATTTAATATAATGAAACCATATATTTAT
# B3: CACACA_negctrl_site362 (dsDNA)
# DNA 1: TTATTTTTTCTTTTTTTTCTTACCACAAAAATGGAT
# DNA 2: ATCCATTTTTGTGGTAAGAAAAAAAAGAAAAAATAA
# B4: CACACA_negctrl_site153 (dsDNA)
# DNA 1: CTTGGTAGTTTTTTCTTATAATCTAATTATTAATAA
# DNA 2: TTATTAATAATTAGATTATAAGAAAAAACTACCAAG
# B5: CACACA_negctrl_site80 (dsDNA)
# DNA 1: TTTAATAAATAAATAAATAAAATATATTAAAAACCA
# DNA 2: TGGTTTTTAATATATTTTATTTATTTATTTATTAAA
# B6: CACACA_negctrl_site945 (dsDNA)
# DNA 1: ATATAAATAAATTAGTGAAAAAAAAAAAATTTTTTT
# DNA 2: AAAAAAATTTTTTTTTTTTCACTAATTTATTTATAT
# B7: CACACA_negctrl_site81 (dsDNA)
# DNA 1: TTCTGTATAATATAAAAACAAAAATTAAATTAAAAC
# DNA 2: GTTTTAATTTAATTTTTGTTTTTATATTATACAGAA
# B8: CACACA_negctrl_site1813 (dsDNA)
# DNA 1: TTTTTATTCGATGATCAAATAGGTATATACAAAAAA
# DNA 2: TTTTTTGTATATACCTATTTGATCATCGAATAAAAA
# B9: CACACA_negctrl_site1228 (dsDNA)
# DNA 1: ATATTTTGGGGACTTTTTAAAAAAGAAGTATTAAAA
# DNA 2: TTTTAATACTTCTTTTTTAAAAAGTCCCCAAAATAT
# B10: CACACA_negctrl_site90 (dsDNA)
# DNA 1: TTATAATATATATAAAAGAAAAAAAATTATAATATA
# DNA 2: TATATTATAATTTTTTTTCTTTTATATATATTATAA
# B11: CACACA_negctrl_site1335 (dsDNA)
# DNA 1: TAAAATTTTAACAAAAAAAAAAAAAAAAAAAGAAAA
# DNA 2: TTTTCTTTTTTTTTTTTTTTTTTTGTTAAAATTTTA
# B12: CACACA_negctrl_site1736 (dsDNA)
# DNA 1: ATTGAAAATTATTTACCTTCTTTGAAAGAACAAATG
# DNA 2: CATTTGTTCTTTCAAAGAAGGTAAATAATTTTCAAT
# B13: CACACA_negctrl_site1402 (dsDNA)
# DNA 1: TTATTATTCTTAAGGATATAACAAAAAAGAAAAATT
# DNA 2: AATTTTTCTTTTTTGTTATATCCTTAAGAATAATAA
# B14: CACACA_negctrl_site651 (dsDNA)
# DNA 1: TTTGGAAAGCGTGATTTTTGACAAACACAAAAAAAA
# DNA 2: TTTTTTTTGTGTTTGTCAAAAATCACGCTTTCCAAA
# B15: CACACA_negctrl_site1605 (dsDNA)
# DNA 1: GTTTTTTTATAAAATTTTTATATAATTCTTTTATAA
# DNA 2: TTATAAAAGAATTATATAAAAATTTTATAAAAAAAC
# B16: CACACA_negctrl_site1347 (dsDNA)
# DNA 1: ATTTTTTTTTTTTTTTTTTTTTTTTTTTAATCTGGA
# DNA 2: TCCAGATTAAAAAAAAAAAAAAAAAAAAAAAAAAAT
# B17: CACACA_negctrl_site1075 (dsDNA)
# DNA 1: AATAAAAAAAAAAAAAAAAAAAAAAAGACACTAAAA
# DNA 2: TTTTAGTGTCTTTTTTTTTTTTTTTTTTTTTTTATT
# B18: CACACA_negctrl_site667 (dsDNA)
# DNA 1: TTATATATAAACATAAAAAGAAATATATTATGTATA
# DNA 2: TATACATAATATATTTCTTTTTATGTTTATATATAA
# B19: CACACA_negctrl_site1333 (dsDNA)
# DNA 1: AATTAAGTTAAACATTAAAAAAAACAAAAAATTAAA
# DNA 2: TTTAATTTTTTGTTTTTTTTAATGTTTAACTTAATT
# B20: CACACA_negctrl_site1262 (dsDNA)
# DNA 1: ATATAAAGAAATTAATTTTTCAACAATAAAAATATA
# DNA 2: TATATTTTTATTGTTGAAAAATTAATTTCTTTATAT
# B21: CACACA_negctrl_site1698 (dsDNA)
# DNA 1: TTATAATAAAAAAATTCCTAAGTCCGTATATATTAT
# DNA 2: ATAATATATACGGACTTAGGAATTTTTTTATTATAA
# B22: CACACA_negctrl_site575 (dsDNA)
# DNA 1: TATTTACAAAAAAAATATAAAAAATATAAAATATAT
# DNA 2: ATATATTTTATATTTTTTATATTTTTTTTGTAAATA
# B23: CACACA_negctrl_site332 (dsDNA)
# DNA 1: TCTTTTAAAAATATAAAAAGGAATATATAAAAATGT
# DNA 2: ACATTTTTATATATTCCTTTTTATATTTTTAAAAGA
# B24: CACACA_negctrl_site427 (dsDNA)
# DNA 1: TTTATAAATTCTCTTTTTAAAAAATATTTTTATACT
# DNA 2: AGTATAAAAATATTTTTTAAAAAGAGAATTTATAAA
# B25: CACACA_negctrl_site918 (dsDNA)
# DNA 1: TTTTTTTTTTCTTTTTTTCTCATGAAATTCTAAATG
# DNA 2: CATTTAGAATTTCATGAGAAAAAAAGAAAAAAAAAA
# B26: CACACA_negctrl_site454 (dsDNA)
# DNA 1: TATTGTAATATTATATATATCTATTATGTATATAAA
# DNA 2: TTTATATACATAATAGATATATATAATATTACAATA
# B27: CACACA_negctrl_site1769 (dsDNA)
# DNA 1: TTTTTACGTAAACAAAATAATTATATAATATTATTT
# DNA 2: AAATAATATTATATAATTATTTTGTTTACGTAAAAA
# B28: CACACA_negctrl_site500 (dsDNA)
# DNA 1: TAATTAAAAAATAAAAAAAAAAAAAATTAAAACAAA
# DNA 2: TTTGTTTTAATTTTTTTTTTTTTTATTTTTTAATTA
# B29: CACACA_negctrl_site1344 (dsDNA)
# DNA 1: TTATGTATTCATTTTTTTTAAGCACCCCAAAATGAT
# DNA 2: ATCATTTTGGGGTGCTTAAAAAAAATGAATACATAA
# B30: CACACA_negctrl_site1666 (dsDNA)
# DNA 1: AAAAAAAAAAAAAAATTAAAGTAATGGAAAAAAAAA
# DNA 2: TTTTTTTTTCCATTACTTTAATTTTTTTTTTTTTTT
# B31: CACACA_negctrl_site87 (dsDNA)
# DNA 1: TCTTTCTAAATCTTACAAATTACTAAAATATTTATA
# DNA 2: TATAAATATTTTAGTAATTTGTAAGATTTAGAAAGA
# B32: CACACA_negctrl_site970 (dsDNA)
# DNA 1: ATATTTTTATGTACTTCAAAAAAAAAGAAAAACAAA
# DNA 2: TTTGTTTTTCTTTTTTTTTGAAGTACATAAAAATAT
# B33: CACACA_negctrl_site766 (dsDNA)
# DNA 1: TTCTTTCTGTTTTATTTATAATAATTTATGATAAAA
# DNA 2: TTTTATCATAAATTATTATAAATAAAACAGAAAGAA
# B34: CACACA_negctrl_site1416 (dsDNA)
# DNA 1: TTTTTTGTACCAAAAAAAAAAAAAAGAAAAAAAAAC
# DNA 2: GTTTTTTTTTCTTTTTTTTTTTTTTGGTACAAAAAA
# B35: CACACA_negctrl_site648 (dsDNA)
# DNA 1: AAAAAGAAAAAATATATTCGTCTATTATAAACAATA
# DNA 2: TATTGTTTATAATAGACGAATATATTTTTTCTTTTT
# B36: CACACA_negctrl_site152 (dsDNA)
# DNA 1: TTTTAAATAATTCGTAATTATAATTATGGAAAAAAG
# DNA 2: CTTTTTTCCATAATTATAATTACGAATTATTTAAAA
# B37: CACACA_negctrl_site466 (dsDNA)
# DNA 1: ATAAAAGAATTAAATAATCAAAATGATTATTTTATA
# DNA 2: TATAAAATAATCATTTTGATTATTTAATTCTTTTAT
# B38: CACACA_negctrl_site122 (dsDNA)
# DNA 1: TCTGGATTGGATTACAAGAAAATAAAATATAAAATA
# DNA 2: TATTTTATATTTTATTTTCTTGTAATCCAATCCAGA
# B39: CACACA_negctrl_site154 (dsDNA)
# DNA 1: TTTTAAAAAATATAATATAATATAATATAAAATAAA
# DNA 2: TTTATTTTATATTATATTATATTATATTTTTTAAAA
# B40: CACACA_negctrl_site731 (dsDNA)
# DNA 1: TCTAAACAAATTAATAAAATAAGTATTCAAAATTAT
# DNA 2: ATAATTTTGAATACTTATTTTATTAATTTGTTTAGA
# B41: CACACA_negctrl_site1633 (dsDNA)
# DNA 1: AAAAATTAAAATATAACTAATTAATTTGTATTCATT
# DNA 2: AATGAATACAAATTAATTAGTTATATTTTAATTTTT
# B42: CACACA_negctrl_site1724 (dsDNA)
# DNA 1: TTTTTCTTTTTTTTTTTAATAATATATAACAAATTT
# DNA 2: AAATTTGTTATATATTATTAAAAAAAAAAAGAAAAA
# B43: CACACA_negctrl_site1036 (dsDNA)
# DNA 1: ATATTGTATTATCTTTATGTACCAAAAAAAAAAAAA
# DNA 2: TTTTTTTTTTTTTGGTACATAAAGATAATACAATAT
# B44: CACACA_negctrl_site283 (dsDNA)
# DNA 1: ACATTCTGATGGTGATTATTAATTATTACAAAAATT
# DNA 2: AATTTTTGTAATAATTAATAATCACCATCAGAATGT
# Biological target: T1, AP2-LT D1
# Assay: gcPBM; about 25 ug protein; PBS, 1% milk, 0.2 mg/ml BSA, salmon testes DNA, 0.03% Triton X-100
# Conditions: tags: N-terminal GST (pGEX-4T-1), kept; label: surface-attached array probe
row,Binder,binding signal
1,B1,"8.66 ln median PBM intensity, better of two orientations"
2,B2,"8.57 ln median PBM intensity, better of two orientations"
3,B3,"8.71 ln median PBM intensity, better of two orientations"
4,B4,"8.73 ln median PBM intensity, better of two orientations"
5,B5,"8.65 ln median PBM intensity, better of two orientations"
6,B6,"8.67 ln median PBM intensity, better of two orientations"
7,B7,"8.74 ln median PBM intensity, better of two orientations"
8,B8,"8.69 ln median PBM intensity, better of two orientations"
9,B9,"8.57 ln median PBM intensity, better of two orientations"
10,B10,"8.58 ln median PBM intensity, better of two orientations"
11,B11,"8.69 ln median PBM intensity, better of two orientations"
12,B12,"8.67 ln median PBM intensity, better of two orientations"
13,B13,"8.6 ln median PBM intensity, better of two orientations"
14,B14,"8.66 ln median PBM intensity, better of two orientations"
15,B15,"8.77 ln median PBM intensity, better of two orientations"
16,B16,"8.7 ln median PBM intensity, better of two orientations"
17,B17,"8.75 ln median PBM intensity, better of two orientations"
18,B18,"8.75 ln median PBM intensity, better of two orientations"
19,B19,"8.76 ln median PBM intensity, better of two orientations"
20,B20,"8.61 ln median PBM intensity, better of two orientations"
21,B21,"8.75 ln median PBM intensity, better of two orientations"
22,B22,"8.62 ln median PBM intensity, better of two orientations"

row,Binder,binding signal
1,B23,"8.73 ln median PBM intensity, better of two orientations"
2,B24,"8.65 ln median PBM intensity, better of two orientations"
3,B25,"8.68 ln median PBM intensity, better of two orientations"
4,B26,"8.69 ln median PBM intensity, better of two orientations"
5,B27,"8.71 ln median PBM intensity, better of two orientations"
6,B28,"8.72 ln median PBM intensity, better of two orientations"
7,B29,"8.67 ln median PBM intensity, better of two orientations"
8,B30,"8.75 ln median PBM intensity, better of two orientations"
9,B31,"8.61 ln median PBM intensity, better of two orientations"
10,B32,"8.64 ln median PBM intensity, better of two orientations"
11,B33,"8.74 ln median PBM intensity, better of two orientations"
12,B34,"8.68 ln median PBM intensity, better of two orientations"
13,B35,"8.72 ln median PBM intensity, better of two orientations"
14,B36,"8.59 ln median PBM intensity, better of two orientations"
15,B37,"8.6 ln median PBM intensity, better of two orientations"
16,B38,"8.76 ln median PBM intensity, better of two orientations"
17,B39,"8.59 ln median PBM intensity, better of two orientations"
18,B40,"8.64 ln median PBM intensity, better of two orientations"
19,B41,"8.76 ln median PBM intensity, better of two orientations"
20,B42,"8.68 ln median PBM intensity, better of two orientations"
21,B43,"8.63 ln median PBM intensity, better of two orientations"
22,B44,"8.72 ln median PBM intensity, better of two orientations"
